For five substances, MukB species cross-linked, cross-linked fraction and cross-linking efficiency results are on record in publication PMC8669397.

The target in assay [1] is E. coli MukB(G67C)-HaloTag (E. coli) (UniProt P22523). Description: cross-linking; in vivo BMOE combinatorial cysteine cross-linking, cells grown to stationary phase; SDS-PAGE and in-gel fluorescence of MukB-HaloTag-TMR.
Assay [2] shares this target. Nature of the assay: cross-linking; in vivo BMOE cysteine cross-linking of E. coli cells in exponential phase, 10 min on ice in PBS; SDS-PAGE and in-gel fluorescence of MukB-HaloTag-TMR.
For assay [3], the target named is E. coli MukB(G67C, D1406A)-HaloTag (E. coli) (UniProt P22523). Described as above.
The target in assay [4] is E. coli MukB(G67C, E1407Q)-HaloTag (E. coli) (UniProt P22523). Described as above.
The target of assay [5] is E. coli MukB(G67C, R771C)-HaloTag with natural C730 (E. coli) (UniProt P22523). Nature of the assay: cross-linking; in vivo BMOE combinatorial cysteine cross-linking, cells grown to stationary phase; SDS-PAGE and in-gel fluorescence of MukB-HaloTag-TMR.
Assay [6] deals with E. coli MukB(R771C)-HaloTag with natural C730 (E. coli) (UniProt P22523). The assay is described as above.

As for “E. coli MukB(G67C)-HaloTag (from UniProt P22523 1-1486) (natural protein)”, the MukB species cross-linked at the heads in assay [1] was determined as 29%. The substance further showed a cross-linked fraction in assay [2] of 22%. In assay [3], “E. coli MukB(G67C, D1406A)-HaloTag (from UniProt P22523 1-1486) (natural protein)” came in with a cross-linked fraction of 21%. In turn, “E. coli MukB(G67C, E1407Q)-HaloTag (from UniProt P22523 1-1486) (natural protein)” registered a cross-linked fraction in assay [4] of 30%. For “E. coli MukB(G67C, R771C)-HaloTag with natural C730 (from UniProt P22523 1-1486) (natural protein)”, the MukB species cross-linked at the heads in assay [5] was determined as 12%. Regarding “E. coli MukB(R771C)-HaloTag with natural C730 (from UniProt P22523 1-1486) (natural protein)”, the cross-linking efficiency in assay [6] is 62%.
